Assays:
[1] = molecular target: human CD47 on cells (SHP-77 tumor cells, human red blood cells, CCRF-CEM cells, human CD47 CHO-K1 stable cell line) (human) (UniProt Q08722); assay: cell-based or functional assay
[2] = molecular target: human CD47 on cells (SHP-77 tumor cells, human red blood cells, CCRF-CEM cells, human CD47 CHO-K1 stable cell line) (human) (UniProt Q08722); assay: flow cytometry on human RBCs
[3] = molecular target: human CD47 on cells (SHP-77 tumor cells, human red blood cells, CCRF-CEM cells, human CD47 CHO-K1 stable cell line) (human) (UniProt Q08722); assay: flow cytometry on SHP-77 cells
[4] = molecular target: Human CD47-C33G (human) (UniProt Q08722); assay: SPR, IgG captured, CD47 in flow; exp 1
[5] = molecular target: wild type human CD47 (Acro Biosystems, cat. no. CD7-H5227) (human) (UniProt Q08722); assay: SPR, IgG captured, CD47 in flow; exp 1
[6] = molecular target: Human CD47-C33G (human) (UniProt Q08722); assay: SPR, IgG captured, CD47 in flow; exp 2
[7] = molecular target: wild type human CD47 (Acro Biosystems, cat. no. CD7-H5227) (human) (UniProt Q08722); assay: SPR, IgG captured, CD47 in flow; exp 2
[8] = molecular target: Human CD47-C33G (human) (UniProt Q08722); assay: SPR, IgG captured, CD47 in flow; exp 3
[9] = molecular target: wild type human CD47 (Acro Biosystems, cat. no. CD7-H5227) (human) (UniProt Q08722); assay: SPR, IgG captured, CD47 in flow; exp 3
[10] = molecular target: Human CD47-C33G (human) (UniProt Q08722); assay: SPR, IgG captured, CD47 in flow; exp 4
[11] = molecular target: wild type human CD47 (Acro Biosystems, cat. no. CD7-H5227) (human) (UniProt Q08722); assay: SPR, IgG captured, CD47 in flow; exp 4
[12] = molecular target: Human CD47-C33G (human) (UniProt Q08722); assay: SPR, IgG captured, CD47 in flow; exp 1; remark: listed apart in the source
[13] = molecular target: wild type human CD47 (Acro Biosystems, cat. no. CD7-H5227) (human) (UniProt Q08722); assay: SPR, IgG captured, CD47 in flow; exp 1; remark: listed apart in the source
[14] = molecular target: Human CD47-C33G (human) (UniProt Q08722); assay: SPR, IgG captured, CD47 in flow; exp 2; remark: listed apart in the source
[15] = molecular target: wild type human CD47 (Acro Biosystems, cat. no. CD7-H5227) (human) (UniProt Q08722); assay: SPR, IgG captured, CD47 in flow; exp 2; remark: listed apart in the source
[16] = molecular target: Human CD47-C33G (human) (UniProt Q08722); assay: SPR, IgG captured, CD47 in flow; exp 1; estimated, out of instrument limit
[17] = molecular target: Human CD47-C33G (human) (UniProt Q08722); assay: SPR, IgG captured, CD47 in flow; exp 3; estimated, out of instrument limit
[18] = molecular target: Human CD47-C33G (human) (UniProt Q08722); assay: SPR, IgG captured, CD47 in flow; exp 2; estimated, out of instrument limit
[19] = molecular target: human CD47 on cells (SHP-77 tumor cells, human red blood cells, CCRF-CEM cells, human CD47 CHO-K1 stable cell line) (human) (UniProt Q08722); assay: flow cytometry on human CD47 CHO-K1 cells; plateau not reached, not accurate
[20] = molecular target: cynomolgus CD47 on CHO-K1 stable cell line (cynomolgus); assay: flow cytometry on cynomolgus CD47 CHO-K1 cells; plateau not reached, not accurate
Chain of cynomolgus CD47 on CHO-K1 stable cell line (cynomolgus) (chain, as listed by the source): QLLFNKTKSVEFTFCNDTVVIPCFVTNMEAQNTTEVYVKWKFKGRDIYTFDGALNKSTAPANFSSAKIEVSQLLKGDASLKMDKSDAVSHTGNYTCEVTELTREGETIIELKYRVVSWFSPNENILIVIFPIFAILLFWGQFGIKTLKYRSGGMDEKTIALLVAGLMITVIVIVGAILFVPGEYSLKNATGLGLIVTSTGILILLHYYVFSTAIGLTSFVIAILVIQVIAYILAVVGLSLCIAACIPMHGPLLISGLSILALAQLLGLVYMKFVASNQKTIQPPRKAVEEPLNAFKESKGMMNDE

- CCRF-CEM phagocytosis EC50 [1]: 0.49 nM
- CCRF-CEM phagocytosis, Phagocytosis (%) [1]: 68.6%
- EC50 [2]: 4.3 nM
- Fitted maximal MFI [2]: 21400 MFI
- EC50 [3]: 2.8 nM
- Fitted maximal MFI [3]: 25400 MFI
- kon [4]: 190000 M⁻¹ s⁻¹
- Kd [5]: 4.5 nM
- koff [5]: 0.0022 s⁻¹
- kon [5]: 500000 M⁻¹ s⁻¹
- Kd [6]: 540 nM
- koff [6]: 0.09 s⁻¹
- kon [6]: 170000 M⁻¹ s⁻¹
- Kd [7]: 4.4 nM
- kon [7]: 550000 M⁻¹ s⁻¹
- kon [8]: 160000 M⁻¹ s⁻¹
- Kd [9]: 4.7 nM
- koff [9]: 0.0022 s⁻¹
- kon [9]: 460000 M⁻¹ s⁻¹
- Kd [10]: 600 nM
- koff [10]: 0.13 s⁻¹
- kon [10]: 210000 M⁻¹ s⁻¹
- Kd [11]: 4.7 nM
- koff [11]: 0.0018 s⁻¹
- kon [11]: 380000 M⁻¹ s⁻¹
- Kd [12]: 540 nM
- koff [12]: 0.09 s⁻¹
- kon [12]: 170000 M⁻¹ s⁻¹
- Kd [13]: 4.4 nM
- koff [13]: 0.0024 s⁻¹
- kon [13]: 550000 M⁻¹ s⁻¹
- kon [14]: 490000 M⁻¹ s⁻¹
- Kd [15]: 4.3 nM
- koff [15]: 0.0024 s⁻¹
- kon [15]: 540000 M⁻¹ s⁻¹
- Kd [16]: > 530 nM
- koff [16]: > 0.1 s⁻¹
- Kd [17]: > 630 nM
- koff [17]: > 0.1 s⁻¹
- Kd [18]: > 200 nM
- EC50 [19]: 5.7 nM
- EC50 [20]: 9.7 nM
B1: TJC4 positive control antibody (antibody, INN chains, looked up, V domains shown)
VH: EVQLVESGGGLVKPGGSLRLSCAASGLTFERAWMNWVRQAPGKGLEWVGRIKRKTDGETTDYAAPVKGRFSISRDDSKNTLYLQMNSLKTEDTAVYYCAGSNRAFDIWGQGTMVTVSS
VL: DIVMTQSPDSLAVSLGERATINCKSSQSVLYAGNNRNYLAWYQQKPGQPPKLLINQASTRASGVPDRFSGSGSGTEFTLIISSLQAEDVAIYYCQQYYTPPLAFGGGTKLEIK

From patent US20260132197A1
